Experimental data reported in patent publication US20030158100A1 (LUDWIG INSTITUTE FOR CANCER RESEARCH, published 2003).
One block for each binder: values may come before it.

B2: LICR-2-Ig (Fc fusion, murine)
chain: RPRLAPPQNVTLLSQNFSVYLTWLPGLGNPQDVTYFVAYQSSPTRRRWREVEECAGTKELLCSMMCLKKQDLYNKFKGRVRTVSPSSKSPWVESEYLDYLFEVEPAPPVLVLTQTEEILSANATYQLPPCMPPLDLKYEVAFWKEGAGNKTLFPVTPHVTPHGQPVQITLQPAASEHHCLSARTIYTFSVPKYSKFSKPTCFLLEVPEPRIPKPSTPPGSSCPPGNILGGPSVFIFPPKPKDALMISLTPKVTCVVVDVSEDDPDVHVSWFVDNKEVHTAWTQPREAQYNSTFRVVSALPIQHQDWMRGKEFKCKVNNKALPAPIERTISKPKGRAQTPQVYTIPPPREQMSKKKVSLTCLVTNFFSEAISVEWERNGELEQDYKNTPPILDSDGTYFLYSKLTVDTDSWLQGEIFTCSVVHEALHNHHTQKNLSRSPGK
notes: domain: hinge, and the CH2 and CH3 domains; Used as unpurified supernatant of transfected HEK293-EBNA cells
B4: IL-10R-Ig (Fc fusion, UniProt Q13651 22-235, looked up)
chain: HGTELPSPPSVWFEAEFFHHILHWTPIPNQSESTCYEVALLRYGIESWNSISNCSQTLSYDLTAVTLDLYHSNGYRARVRAVDGSRHSNWTVTNTRFSVDEVTLTVGSVNLEIHNGFILGKIQLPRPKMAPANDTYESIFSHFREYEIAIRKVPGNFTFTHKKVKHENFSLLTSGEVGEFCVQVKPSVASRSNKGMWSKEECISLTRQYFTVTN
notes: Control; Used as supernatant of cells transfected with IL-10R-Ig fusion cDNA; The construct is not described; also called IL-10R-Ig fusion; not shown: Ig part of the control fusion is not described

What was measured:
LICR-2-Ig = target: B2; assay: ELISA, plate coated with recombinant human IL-22, 50 µl supernatant, anti-murine Ig-peroxidase detection
Description: (§1) Interaction analysis was carried out via ELISA. In brief, plates were coated with either recombinant AK155; Knappe, et al., J. Virol 74:3881-7 (2000), incorporated by reference, recombinant human IL-22, or 0.02 μg/ml of bovine serum albumin, and incubated with the test sample overnight at 4° C. The test substance, in all cases, was mixed in 20 mM Tris glycine buffer containing 30 mM NaCl, pH 9.2. After washing in PBS buffer plus Tween 20 (1×10⁻⁴ v/v), plates were blocked with PBS plus 1% BSA for 4 hours. 50 μl of supernatant derived from cells transfected with LICR-2 or with control supernatant referred to supra were added, and the plates were incubated for 2 hours, at 37° C. Bound LICR-2-Ig was detected using anti-murine Ig polyclonal antibodies coupled to peroxidase. The reaction was developed by adding 100 μl of TMB (1.25 mM), followed by 20 μl of H₂SO₄ (2M) to stop the reaction. Absorbance was measured at 450 nm.

IL-10R-Ig [1] = target: B4; assay: ELISA, plate coated with recombinant human IL-22, 50 µl control supernatant, anti-murine Ig-peroxidase detection
Description: as §1

bovine serum albumin [2] = target: T1, bovine serum albumin (bovine, UniProt P02769 25-607); assay: ELISA, plate coated with BSA, 50 µl supernatant, anti-murine Ig-peroxidase detection
T1 construct: Control coating protein; also called BSA
T1 sequence (P02769 25-607 limits assumed): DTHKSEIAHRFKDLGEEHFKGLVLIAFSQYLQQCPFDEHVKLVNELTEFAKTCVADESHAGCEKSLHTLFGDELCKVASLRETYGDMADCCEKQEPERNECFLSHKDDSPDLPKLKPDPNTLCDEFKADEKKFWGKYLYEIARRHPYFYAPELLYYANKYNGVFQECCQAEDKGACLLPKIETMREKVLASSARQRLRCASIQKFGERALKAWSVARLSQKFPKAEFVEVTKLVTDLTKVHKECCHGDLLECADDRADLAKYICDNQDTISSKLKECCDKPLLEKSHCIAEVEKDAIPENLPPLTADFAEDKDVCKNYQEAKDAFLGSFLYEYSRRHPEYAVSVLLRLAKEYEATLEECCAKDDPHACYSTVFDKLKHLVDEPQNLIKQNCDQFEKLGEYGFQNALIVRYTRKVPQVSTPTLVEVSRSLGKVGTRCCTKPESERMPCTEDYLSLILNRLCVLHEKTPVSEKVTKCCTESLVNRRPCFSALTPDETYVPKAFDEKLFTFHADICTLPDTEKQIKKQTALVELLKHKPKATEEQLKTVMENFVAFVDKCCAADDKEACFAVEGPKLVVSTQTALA
Description: as §1

IL-10R-Ig [3] = target: B4; assay: ELISA, plate coated with recombinant AK155, 50 µl control supernatant, anti-murine Ig-peroxidase detection
Description: as §1

bovine serum albumin [4] = target: T1, bovine serum albumin; assay: ELISA, plate coated with BSA, 50 µl control supernatant, anti-murine Ig-peroxidase detection
Description: as §1

binding result (LICR-2-Ig): no binding | binding result (IL-10R-Ig [1]): no binding
B1: recombinant human IL-22 (ligand, UniProt Q9GZX6 34-179, looked up)
chain: APISSHCRLDKSNFQQPYITNRTFMLAKEASLADNNTDVRLIGEKLFHGVSMSERCYLMKQVLNFTLEEVLFPQSDRFQPYMQEVVPFLARLSNRLSTCHIEGDDLHIQRNVQKLKDTVKKLGESGEIKAIGELDLLFMSLRNACI
notes: also called IL-TIF

Binder: B2
binding result (bovine serum albumin [2]): no binding (tested: 0.02 µg/ml BSA (coating))

binding result (IL-10R-Ig [3]): no binding
B3: recombinant AK155 (ligand, human, UniProt Q9NPH9 22-171, looked up)
chain: KHKQSSFTKSCYPRGTLSQAVDALYIKAAWLKATIPEDRIKNIRLLKKKTKKQFMKNCQFQEQLLSFFMEDVFGQLQLQGCKKIRFVEDFHSLRQKLSHCISCASSAREMKSITRMKRIFYRIGNKGIYKAISELDILLSWIKKLLESSQ
notes: Coated on the ELISA plate; The assay paragraph says only 'recombinant AK155'

Binder: B4
binding result (bovine serum albumin [4]): no binding (tested: 0.02 µg/ml BSA (coating))
